Assay results as given in patent US8114412B2, “T. cruzi-derived neurotrophic agents and methods of use therefor” (priority 1999, dated 2012).

Test: Trans-sialidase assay
Type: biochemical
Experimental: The trans-sialidase assay was performed as described (Scudder et al., J. Biol. Chem. 268:9886-9891 (1993)) with slight modifications. Various amounts of intact enzyme or enzyme fragments were added to 50 mM PBS, Ph 7.2, containing 15% fetal calf serum and […] of [^14C]N-acetyllactosamine (4×10^5 dpm), 50 μg BSA and 0.02% NaN3 in a volume of 60 μl. After incubation for a predetermined amount of time at room temperature, the reaction mixture was diluted to 1.0 ml with distilled water and applied to a column containing 1.0 ml Q-Sepharose equilibrated with water. Sialylated product was eluted with 1 M NaCi and quantified by scintillation counting.
TS enzymatic activity was measured by the sialylation of the acceptor ^14C-labeled N-acetyllactosamine on anion exchange resins (Scudder, P. et. al., J. Biol. Chem. 268:9886-9891 (1993)). Recombinant TSA-1, was expressed on insect sf9 cells and purified from serum-free medium by ion exchange chromatography (monoQ) and preparative SDS-PAGE (Wrightsman, R. A. et al., J. Immunol., 153:3148-3154 (1994).

B1: TS-F: recombinant full catalytic domain of TS, amino acid residues 33-666, His-tagged, expressed in E. coli (protein, listed as Trypanosoma cruzi)
chain: ETQIAIKNSRVSSVSRVVDPTVIVKGNKLYVLVGSYYSSRSYWSSHGDARDWDILLAVGEVTKSTAGGKITASIKWGSPVSLKKFFPAEMEGMHTNQFLGGAGVAIVASNGNLVYPVQVTNKRKQVFSKIFYSEDDGKTWKFGKGRSDFGCSEPVALEWEGKLIINTRVDWKRRLVYESSDMEKPWVEAVGTVSRVWGPSPKSNQPGSQTSFTAVTIEGMRVMLFTHPLNFKGRCVRDRLNLWLTDNQRIYNVGQVSIGDENSAYSSVLYKDDKLYCLHEINTDEVYSLVFARLVGELRIIKSVLRSWKNWTATCPAFAPLLIQPLRRQRVVVVPLSPRLVLLAFCRQRLPKRMGGSYRCVNASTANAERVRNGLKFAGVGGGALWPVSQQGQNQRYRFANHAFTLVASVTIHEAPRAASPLLGASLDSSGGKKLLGLSYDEKHQWQPIYGSTPVTPTGSWETGKRYHLVLTMANKIGSVYIDGELLEGSGQTVVPDGRTPDISHFYVGGYKRSDMPTISHVTVNNVLLYNRRQLNTEEIRTLFLSQDLIGTEAHMDSSSDSSAHSTPSTPADSSAHSTPSTPVDSSAHSTPSTPADSSAHGTPSTPVDSSAHGTPSTPADSSAHGTPSTPVDS
modifications: His tag
notes: recombinant full catalytic domain of TS, amino acid residues 33-666, His-tagged, expressed in E. coli
trans-sialidase enzymatic activity: enzymatically active
